Three molecules from US20240166695A1, “PEPTIDIC POSITIVE ALLOSTERIC MODULATORS TARGETING TRPV1” (priority 2021, published 2024) can be followed below.

Changes are numbered by the printed parent chain.

In experiment [1] the test system is TRPV1 channel. Kind of experiment: Airyscan super resolution imaging of TRPV1-YFP and De1-CFP in HEK293 cells. The class given is cell-based. To be noted: co-transfected HEK293 cells. Here is the method: Super-resolution fluorescence microscopy was performed with the Zeiss LSM 880 fluorescence microscope with Airyscan. YFP fused to TRPV1 and CFP fused to the designed proteins were excited by laser line at 488 nm and 458 nm, respectively. We used a 60× oil-immersion objective (NA 1.42) in these experiments. Fluorescence imaging was performed with the default settings for CFP and YFP channels in the microscope controlled by the Zeiss ZEN software. Overlay of YFP- and CFP-channel images was also done in ZEN.

In experiment [2] the target is T1, TRPV1 (UniProt Q704Y3).
T1 construct: other: TRPV1 alone; absence of extracellular calcium; other: design co-expressed with TRPV1; extracellular calcium p; repeated caps; fused on or other part: Possibly YFP at the C-terminus
The experiment is described as follows: Whole-cell patch-clamp recordings of capsaicin activation, desensitization and tachyphylaxis. The class given is cell-based. Particulars: design co-expressed with TRPV1; for acute current desensitization upon capsaicin activation: extracellular calcium present. How it is done: Patch-clamp recordings were performed with a HEKA EPC10 amplifier controlled by PatchMaster software (HEKA). Whole-cell recordings at ±80 mV were used to test whether an ANAP-incorporated channel was functional. Patch pipettes were prepared from borosilicate glass and fire-polished to resistance of ˜4 MΩ. For whole-cell recording, serial resistance was compensated by 60%. A solution with […], 10 mM glucose, 0.2 mM EDTA and 3 mM HEPES (pH 7.2) was used in both bath and pipette for concentration response curve measurements in TRPV1, TRPV2 and TRPV3. To measure calcium-dependent ligand-induced desensitization and tachyphylaxis, 2 mM CaCl2 was added to the solution. Membrane potential was clamped at ±80 mV. Current was sampled at 10 kHz and filtered at 2.9 kHz. All recordings were performed at room temperature (22° C.) with the maximum variation of 1° C.
Ligands were perfused to membrane patch by a gravity-driven system (RSC-200, Bio-Logic). Bath and ligand solution were delivered through separate tubes to minimize the mixing of solutions. Patch pipette was placed in front of the perfusion tube outlet.
On the technique in general: Patch clamp records ionic current or voltage across a cell membrane.

The target of another experiment is T2, ARD of TRPV1 (Rattus norvegicus, UniProt O35433).
T2 construct: made in house; host or cells: E. coli BL21 (DE3), pET-32a
The experiment is described as follows: Surface plasmon resonance, ARD immobilized on CM5 sensor chip. The experiment is classed as binding. Particulars: protein boiled to disrupt three-dimensional structure. From the text: To further quantify the binding affinity of the designs to the ARD, we expressed and purified both designed proteins and the ARD in E. coli. The DNA sequence of each designed protein and the ARD of TRPV1 (see their primary protein sequences in Table 6) was synthesized and inserted into the pET-32a plasmid after codon optimization for protein expression in bacteria E. coli BL21 (DE3) was transformed with the recombinant plasmids. A single colony was inoculated into media containing ampicillin; cultures were incubated in 37° C. at 200 rpm. Once cell density reached to OD 0.8-1.0 at 600 inn, IPTG was introduced for induction. SDS-PAGE was used to monitor the expression. […] The protein expression was stopped by centrifugation at 8000 rpm for 30 min. We collected cells and resuspended in resuspension solution containing 50 mM Tris-HCl, 150 mM NaCl, 10% glycerol and protease inhibitor (pH 7.4). The cells were lysed by sonication. The supernatant after centrifugation was kept for future purifications. Taget proteins were obtained by Ni column, and then further purified by the reversed phase HPLC on a Jupiter C4 column (10×250 mm, Phenomenex, Torrance, CA, USA). […]
We then quantified the binding of De1 and De3 to the ARD protein fixed on the sensor chip by surface plasma resonance (SPR) (FIGS. 6A and 6B). […] Steady-state SPR responses were measured and used to determine the KD values. […]
(SPR reads the build-up and loss of mass on a sensor chip optically.)

The subject of experiment [3] is TRPV1 channel. Kind of experiment: FRET imaging of TRPV1-YFP and design-CFP co-expressed in HEK293 cells. The experiment is classed as binding. Particulars: for FRET ratio max: HEK293 cells; for FRET signal between design-CFP and TRPV1-YFP: co-expressed in cells; for FRET efficiency: spectraFRET, design-CFP and TRPV1-YFP. From the text:
Any design candidate can be assessed for the ability to bind TRPV1 using techniques including, but not limited to, the FRET protocols and SPR protocols described herein. For example, complementary fluorescent proteins (including, but not limited to, GFP CFP, YFP, and the like) may be fused recombinantly to a designed peptide and to TRPV1 for assessment of TRPV1 binding via FRET. In some non-limiting embodiments, binding of a candidate modulator to TRPV1 can be confirmed by observing a FRET ratio max of at least 1.25 when YFP is fused to the C-terminus of TRPV1, CFP is fused to the C-termini of a candidate peptide. In some embodiments, binding of a candidate modulator to TRPV1 can be confirmed by observing a FRET efficiency greater than about 4% (e.g., at least 5%, or at least 7%) when YFP is fused to the C-terminus of TRPV1, CFP is fused to the C-termini of a candidate peptide. FRET measurements can be made by co-expressing the FRET-labeled constructs in host cells, exciting the CFP construct in the host cells at 458 inn, and observing YFP emission at 530 nm. CFP emission can be separated from YFP emission by fitting of standard spectra acquired from cells expressing YFP or CFP only.
FRET efficiency is defined in its usual definition; it is inversely related to the sixth power of the distance between complementary fluorescent proteins on the binding partners. FRET efficiency is quantified from measurements of the fluorescence emission spectra, using the established method.
FRET ratios can be calculated from the increase in YFP emission due to energy transfer as described previously (Qiu, et al. J. Biol. Chem. 2005, 280, 24923, incorporated herein by reference in its entirety). CFP emission can be separated from YFP emission by fitting of standard spectra acquired from cells expressing only YFP or CFP. The fraction of YFP-tagged molecules that are associated with CFP-tagged molecules, Ab, is calculated as Ab=1/(1+KD/[Dfree]), where KD is the dissociation constant and [Dfree] is the concentration of free donor molecules. The FRET Ratio=1+Ab*(FRET Ratiomax−1). Regression analysis can be used to estimate Ab in individual cells. From each cell, the FRET ratioexp is experimentally determined. The predicted Ab value is then computed by adjusting two parameters, FRET Ratiomax, and apparent KD Ab was in turn used to give a predicted FRET ratiopredicted. By minimizing the squared errors (FRET ratioexp. FRET ratiopredicted)^2, KD was determined.
Apparent FRET efficiency can be calculated from the enhancement of YFP acceptor fluorescence emission due to energy transfer from the CFP donor using previously described methods. [see, e.g., Yang and Zheng, et al. Proc. Natl. Acad. Sci. U.S.A. 2010, 107 7083, which is incorporated herein by reference]. RatioA0, and RatioA1, are measured to calculate FRET efficiency. RatioA0, represents the ratio between acceptor emission intensities (in the absence of the donor) upon excitation at the donor and acceptor excitation wavelengths, and can be calculated at the YFP peak emission wavelength. A particular advantage of quantifying RatioA0 for FRET measurement is that changes in fluorescence intensity caused by many experimental factors cap be cancelled out by the ratiometric measurement:
To experimentally test whether our designed proteins work as PAM of TRPV1, we first tested whether they could interact with TRPV1 channel in live cells. We genetically fused YFP and CFP to the C termini of TRPV1 and our designs, respectively.
For spectroscopic imaging in FRET experiments, the imaging system was built upon a Nikon TE2000-U microscope. The excitation light was generated by an Ar laser. The duration of light exposure was controlled by a computer-driven mechanical shutter (Uniblitz). A spectrograph (Acton SpectraPro 2150i) was used in conjunction with a CCD camera (Roper Cascade 128B). […]

Experiment [4] concerns TRPV1. The experiment is described as follows: Calcium imaging (Fluo-4) of capsaicin activation in transfected HEK293 cells. The experiment is classed as cell-based. To be noted: 0.5 nM capsaicin; design co-expressed with TRPV1. How it is done:
We then investigated whether, upon binding of the designed proteins, TRPV1 activation was positively modulated. […] Probenecid (2 mM) was included in all solutions to prevent Fluo-4 leakage from cells. At the end of incubation, cells were washed three times with ECS and incubated in the same solution for another 20 min at room temperature to complete the intracellular hydrolysis process of the AM ester, which converts the non-fluorescent Fluo-4/AM into the fluorescent version Fluo-4.
Coverslip with dye-loaded cells was placed in the quick-release magnetic chamber (Warner) and mounted on the stage of a Nikon Eclipse TE2000-U microscope system equipped with a Roper Cascade 128B CCD camera. Fluo-4 was excited by an Argon laser with a filter set of Z488/10 (excitation), z488rdc (dichroic) and recorded through an emission filter HQ5001p (all from Chroma). The duration of light exposure was controlled by a computer-driven mechanical shutter (Uniblitz). Cell images were acquired sequentially with an exposure period of 200 ms at an interval of 1 s. The shutter and the camera were controlled and synchronized by MetaMorph software (Universal Imaging).

T2 sequence (O35433 with tags, fused parts or gaps): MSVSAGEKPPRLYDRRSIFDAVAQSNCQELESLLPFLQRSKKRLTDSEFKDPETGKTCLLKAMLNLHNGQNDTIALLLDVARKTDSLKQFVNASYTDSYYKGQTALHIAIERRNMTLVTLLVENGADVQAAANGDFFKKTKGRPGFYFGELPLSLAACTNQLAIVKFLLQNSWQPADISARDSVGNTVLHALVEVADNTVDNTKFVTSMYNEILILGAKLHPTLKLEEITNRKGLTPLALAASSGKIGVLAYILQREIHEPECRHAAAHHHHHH

B1: De1: designed 93-residue protein binder to TRPV1 ARD, scaffold 1QZM, SEQ ID NO: 8 (protein)
chain: NGYSSEDKLRIAKRHLLPKQIERNALKKGELFVSEFAILGIILFYTDEAGVRGLEREISKLCRKAVKQLLLDKSTTSSHASGFHLHDYLGVMR
Regarding B1, in the experiment on TRPV1 channel [1], the “co-localization with TRPV1 on cell membrane” value is recorded as “clear co-localization”. The “acute current desensitization upon capsaicin activation” value in the experiment with TRPV1 [2] is given as “significantly slowed down”. Besides, the capsaicin induced tachyphylaxis entry with TRPV1 [2] (repeated capsaicin application) is listed as “capsaicin induced tachyphylaxis was reduced”. The “binding with the ARD after boiling of the protein” value with ARD of TRPV1 is reported as “completely abolished”. Besides, in the experiment with TRPV1 channel [3], the FRET ratio max is on record as 3.86; the “FRET signal between design-CFP and TRPV1-YFP” value is on record as “positive FRET signals”. Further, the “activation of TRPV1 by low capsaicin concentration when co-expressed with design” value with TRPV1 [4] was “sufficient to activate TRPV1 channels”.

B2: De2: optimized version of De1, 93 residues, scaffold 1QZM, SEQ ID NO: 37 (protein)
chain: B1 chain with S4W, L9E, F32K, S34W, L39F, D47W, S77R, H79W
Consider B2, for which the “acute current desensitization upon capsaicin activation” value with TRPV1 [2] is given as “no such an effect was observed”. Also, in the experiment with TRPV1 channel [3], the FRET ratio max is on record as 2.35; the “FRET signal between design-CFP and TRPV1-YFP” value is recorded as “positive FRET signals”; the FRET efficiency is 7.4%.

B3: De4: design on scaffold 2HDZ used as negative control because it cannot refold well, SEQ ID NO: 38 (protein)
chain: LPESPRFAQKIWQQSVIGDYLARFKNDRVKALKAMEDSSNNSSMHRFAEFFAKAFEDLHRYLEEL
B3: the “acute current desensitization upon capsaicin activation” value in the experiment with TRPV1 [2] was “no such an effect was observed”. Further, in the experiment with TRPV1 channel [3], the “FRET signal between design-CFP and TRPV1-YFP” value is given as “no FRET occurred”; the FRET efficiency came out at 3.8%.
